# Changes are numbered by the printed parent chain. Where no end group is shown, it is not given here. The star is where a group is joined. Biotin = O=C1N[C@H]2[C@H](CS[C@H]2CCCCC(=O)*)N1
# T1: human XCR1-EGFP (human, UniProt P46094 1-333, EGFP fused to the receptor is not carried in the letters.)
# T1 sequence: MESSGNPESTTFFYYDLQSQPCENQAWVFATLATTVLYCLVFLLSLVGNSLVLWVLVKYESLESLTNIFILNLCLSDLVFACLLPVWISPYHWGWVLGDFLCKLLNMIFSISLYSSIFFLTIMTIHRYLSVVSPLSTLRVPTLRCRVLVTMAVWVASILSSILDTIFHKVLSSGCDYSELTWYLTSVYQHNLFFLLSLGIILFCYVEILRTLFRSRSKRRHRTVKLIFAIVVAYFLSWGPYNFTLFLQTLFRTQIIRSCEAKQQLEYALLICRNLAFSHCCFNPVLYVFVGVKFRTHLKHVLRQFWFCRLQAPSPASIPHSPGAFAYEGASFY
# T2: human XCR1 peptide 11-22 TFFYYDLQSQPC (human)
# T2 peptide: Biotin-GSGSTFFYYDLQSQPC
# T3: human XCR1 peptide 19-30 SQPCENQAWVFA (human)
# T3 peptide: Biotin-GSGSSQPCENQAWVFA
# T4: human XCR1 peptide 175-186 CDYSELTWYLTS (human)
# T4 peptide: Biotin-GSGSCDYSELTWYLTS
# T5: human XCR1 peptide 172-183 SSGCDYSELTWY (human)
# T5 peptide: Biotin-GSGSSSGCDYSELTWY
# B1: humanized anti-human XCR1 antibody HK1L2 (antibody, human IgG2, kappa, V domains shown)
# VH: QVQLVQSGAEVKKPGASVKVSCKASGYTFTSHNLHWVRQAPGQRLEWMGAIYPGNGNTAYNQKFKGRVTITRDTSASTAYMELSSLRSEDTAVYYCARWGSVVGDWYFDVWGQGTLVTVSS
# VL: DVVMTQSPLSLPVTLGQPASISCRSSLGLVHRNGNTYLHWFQQRPGQSPRLLIYKVSHRFSGVPDRFSGSGSGTDFTLKISRVEAEDVGVYYCSQSTHVPWTFGQGTKVEIKR
# B2: humanized anti-human XCR1 antibody HK5L5 (antibody, human IgG2, kappa, V domains shown)
# VH: B1 VH with R44G, I70M, A76T, A79V
# VL: B1 VL with V2I, S7T, L15P, F41Y, Q42L, R44K, R50Q
# B3: mouse anti-human XCR1 antibody (11H2) (antibody, IgG2a, V domains shown)
# VH: EVQLQQSGPVLVKPGASVKMSCKASGYTFTDYYVNWVKQSHGASLEWIGVSNPKNGDKSYNQKFKGKATLTVDKSSSTAYMELNSLTSEDSAVYYCARGLYYAGTYGYFDVWGTGTTVTVSS
# VL: DIQMTQATSSLSASLGDRVTISCRASQDISNYLNWYQQKPDGTVKLLIYYTSRLHSGVPSRFRGSGSGTDFSLTISNLEQEDIATYFCQQGKTLPRTLGGGTKLEIK
# B4: mouse anti-human XCR1 antibody (2H6) (antibody, IgG2b, V domains shown)
# VH: QAYLQQSGAELVRPGASVKMSCKASGYTFSSHNMHWIKQTLRQGLEWIGAIYPGKGNTSYNQKFKGKATLTVDKSSSTAYMQLSSLTSEDSAVYFCARWGSVVGDWYFDVWGTGTTVTVSS
# VL: DVVVTQTPLSLPVSLGDQASISCRSSQSLVHSNGNTYLHWYLQKPGQSPKLLIYRVSNRFSGVPDRFSGSGLGRDFTLKISRVEAEDLGVYFCSQSTFVPWTFGGGTKLEIK
# B5: mouse anti-human XCR1 antibody (5G7) (antibody, IgG2b, V domains shown)
# VH: B4 VH with S30T, M34L, I37V, L41P, E46Q, K55N, S59A, E89D
# VL: DVVMTQTPLSLPVTLGNQASIFCRSSLGLVHRNGNTYLHWYLQKPGQSPKLLIYKVSHRFSGVPDRFSGSGSGTDFTLKISRVEAEDLGVYFCSQSTHVPWTFGGGTKLEIK
# notes: also called 5G7 Mab; parent antibody 5G7
# How the values were obtained:
# [1] = biological target: T1, human XCR1-EGFP; assay: cell-based or functional assay
# [2] = biological target: T1, human XCR1-EGFP; assay: competitive ligand binding assay, FACS on human XCR1-EGFP BaF3 cells; competitor human XCL1-SSS-His(10) at 0.12 µg/mL
# Method: The competitive ligand binding assay was performed according to the following procedure. Parent BaF3 cells and human XCR1-EGFP-expressing BaF3 cells were mixed at a 1:1 ratio, and suspended in a FACS buffer (1% FBS-containing PBS⁻ (Sigma)). The cells were blocked for 10 minutes on ice with a FACS buffer containing 10% rat serum. The cells were then incubated for 20 minutes on ice with mouse anti-human XCR1 antibodies (2H6, 5G7, or 11H2), mouse isotype control antibodies, IgG2a (eBioscience, #16-4724-85), or IgG2b (eBioscience, #16-4732-85) at various concentrations from 0 to 150 μg/mL. Next the cells were incubated for 30 minutes on ice with human XCL1-SSS-His(10) at a saturating concentration of 0.12 μg/mL. The cells were washed with the FACS buffer three times, and then incubated for 20 minutes on ice with anti-6×His tag antibody (BETHYL, #A190-114A, diluted at 1:100 in FACS buffer). […] Next the cells were once again washed three times with the FACS buffer, and then suspended in FACS buffer. The fluorescence intensity was measured using a FACSCanto II cell analyzer (BD Bioscience).
# [3] = biological target: T1, human XCR1-EGFP; assay: cell-based or functional assay; remark: listed apart in the source
# [4] = biological target: T2, human XCR1 peptide 11-22 TFFYYDLQSQPC; assay: peptide ELISA on streptavidin plates
# Method: (§1) Streptavidin-coated microtiter plates (Perkin Elmer) were coated with 50 μg/mL of peptide per well in a volume of 50 μL, and incubated at room temperature for 1 hour. The peptide solution was removed and PBS⁻ containing 4% Block-Ace was added to each well and incubated overnight at 4° C. Each well was washed three times with an ELISA wash buffer (0.02% Tween20 in PBS−). Anti-human XCR1 antibodies (2H6, 5G7, or 11H2) were added to each well in amount of 10 μg/mL, and incubated for 6 hours at room temperature. Each well was washed three times with the ELISA wash buffer. Horseradish peroxidase-conjugated donkey anti-mouse IgG antibody (Jackson, #715-035-150), diluted 1:5,000 in the ELISA wash buffer, was added to each well and incubated for 1 hour at room temperature. Each well was washed three times with the ELISA wash buffer. TMBZ (3,3′,5,5′ tetramethyl benzidine; Sigma) was added to each well and incubated at room temperature. The reaction was stopped with 2NH₂SO₄, and A₄₅₀ₙₘ was measured by Arvo plate reader (PerkinElmer).
# [5] = biological target: T3, human XCR1 peptide 19-30 SQPCENQAWVFA; assay: peptide ELISA on streptavidin plates
# Method: as §1
# [6] = biological target: T4, human XCR1 peptide 175-186 CDYSELTWYLTS; assay: peptide ELISA on streptavidin plates
# Method: as §1
# [7] = biological target: T5, human XCR1 peptide 172-183 SSGCDYSELTWY; assay: peptide ELISA on streptavidin plates
# Method: as §1
# [8] = biological target: T1, human XCR1-EGFP; assay: cell-based or functional assay; remark: listed apart in the source
Binder,"IC50 (nM), chemotaxis assay, Assay-1 [1] [nM]","IC50 (nM), chemotaxis assay, Assay-2 [1] [nM]","IC50 (nM), chemotaxis assay, Assay-3 [1] [nM]",IC50 [2] [nM],"IC50 (nM), chemotaxis assay [3] [nM]","IC90 (nM), chemotaxis assay [3] [nM]",binding result [4],binding result [5],binding result [6],binding result [7],IC50 of growth suppression with saporin-conjugated Fab anti-mouse IgG secondary antibody [8] [nM],"concentration of complete inhibition of cell migration, chemotaxis assay [8] [µg/mL]"
B1,0.1,0.25,0.12,–,–,–,–,–,–,–,–,–
B2,0.52,0.36,0.2,–,–,–,–,–,–,–,–,–
B3,–,–,–,23.8,0.99,6.32,no binding (tested: 10 µg/mL),no binding (tested: 10 µg/mL),no binding (tested: 10 µg/mL),no binding (tested: 10 µg/mL),0.155,~3
B4,–,–,–,37,1.28,7.6,–,–,–,–,0.141,~3
B5,–,–,–,6.9,0.63,2.52,–,–,–,–,0.017,~3
